# From patent US20230112123A1 (published 2023)
# T1: human CD70 (human, UniProt P32970 1-193)
# T1 chain: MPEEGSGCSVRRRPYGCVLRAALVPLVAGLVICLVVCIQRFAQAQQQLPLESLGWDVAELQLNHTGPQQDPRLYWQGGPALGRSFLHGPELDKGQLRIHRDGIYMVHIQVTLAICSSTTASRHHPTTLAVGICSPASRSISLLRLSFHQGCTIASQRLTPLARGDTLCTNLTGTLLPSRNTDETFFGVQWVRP
# Target: T1, human CD70
# Experiment: FACS blocking of CD27(ECD)-Fc binding; CHO-CD70 cells
row,Binder,IC50 [nM]
1,"IMM40H (antibody, V domains shown) VH: QVQLVQSGAEVKKPGASVKVSCKVSGYTFTDSALHWVRQAPGKGLEWMGVISTYDGDTDYNQKFKGRVTMTEDTSTDTAYMELSSLRSEDTAVYYCARRGYYDYDWFPYWGQGTLVTVSA VL: DIVLTQSPASLAVSPGQRATITCRASKSVSASGYSFLHWYQQKPGQPPKLLIYLASNLESGVPARFSGSGSGTDFTLTINPVEANDTANYYCQHSRELPPTFGGGTKVEIKR",2.04
2,"Cusatuzumab (antibody, V domains shown) VH: EVQLVESGGGLVQPGGSLRLSCAASGFTFSVYYMNWVRQAPGKGLEWVSDINNEGGTTYYADSVKGRFTISRDNSKNSLYLQMNSLRAEDTAVYYCARDAGYSNHVPIFDSWGQGTLVTVSS VL: QAVVTQEPSLTVSPGGTVTLTCGLKSGSVTSDNFPTWYQQTPGQAPRLLIYNTNTRHSGVPDRFSGSILGNKAALTITGAQADDEAEYFCALFISNPSVEFGGGTQLTVLG",2.39
